B1: ANKRD17 (parent)
chain: EMVRFLLEAGADQEHKTDEMHTAL

Variants of: B1
Assay: protein stability index of a GFP-peptide fusion (GPS, HEK-293T) (PSI 1-6); higher = more stable
Details: c terminus: a fixed tail appended
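Also: lentivirally expressed fusions sorted by FACS into six bins by GFP to DsRed ratio, PSI derived from sequencing read proportions per bin multiplied by bin number.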

Variant	protein stability index
EMVRFLLEAGADQEHMTDEMHTAL [K16M]	3.06
EMVRFLLEAGADQEHETDEMHTAL [K16E]	2.68
EMVRFLLEAGADQEHNTDEMHTAL [K16N]	3.29
EMVRFLLEAGADQEHCTDEMHTAL [K16C]	2.56
EMVRFLLEAGADQEHSTDEMHTAL [K16S]	2.91
EMVRFLLEAGADQEHPTDEMHTAL [K16P]	2.45
EMVRFLLEAGADQEHFTDEMHTAL [K16F]	3
EMVRFLLEAGADQEHVTDEMHTAL [K16V]	3.18
EMVRFLLEAGADQEHKTSEMHTAL [D18S]	2.73
EMVRFLLEAGADQEHKTAEMHTAL [D18A]	2.31
EMVRFLLEAGADQEHKTQEMHTAL [D18Q]	2.67
EMVRFLLEAGADQEHKTVEMHTAL [D18V]	1.6
EMVRFLLEAGADQEHKTGEMHTAL [D18G]	2.26
EMVRFLLEAGADQEHKTIEMHTAL [D18I]	2.64
EMVRFLLEAGADQEHKTTEMHTAL [D18T]	2.42
EMVRFLLEAQADQEHKTDEMHTAL [G10Q]	2.57
EMVRFLLEANADQEHKTDEMHTAL [G10N]	2.82
EMVRFLLEAHADQEHKTDEMHTAL [G10H]	2.57
EMVRFLLEAVADQEHKTDEMHTAL [G10V]	2.07
EMVRFLLEAFADQEHKTDEMHTAL [G10F]	2.18
EMVRFLLEAKADQEHKTDEMHTAL [G10K]	2.57
EMVRFLLEAMADQEHKTDEMHTAL [G10M]	2.05
EMVRFLLEAEADQEHKTDEMHTAL [G10E]	3.32
EKVRFLLEAGADQEHKTDEMHTAL [M2K]	4.64

Variant	protein stability index
EQVRFLLEAGADQEHKTDEMHTAL [M2Q]	4.64
ETVRFLLEAGADQEHKTDEMHTAL [M2T]	4.4
ESVRFLLEAGADQEHKTDEMHTAL [M2S]	4.63
EWVRFLLEAGADQEHKTDEMHTAL [M2W]	2.5
EFVRFLLEAGADQEHKTDEMHTAL [M2F]	1.97
EHVRFLLEAGADQEHKTDEMHTAL [M2H]	4.21
EDVRFLLEAGADQEHKTDEMHTAL [M2D]	5.29
EYVRFLLEAGADQEHKTDEMHTAL [M2Y]	2.81
EAVRFLLEAGADQEHKTDEMHTAL [M2A]	3.71
EMVRFLLEAGADQEHKQDEMHTAL [T17Q]	2.54
EMVRFLLEAGADQEHKRDEMHTAL [T17R]	2.68
EMVRFLLEAGADQEHKEDEMHTAL [T17E]	2.99
EMVRFLLEAGADQEHKHDEMHTAL [T17H]	2.55
EMVRFLLEAGADQEHKSDEMHTAL [T17S]	2.76
EMVRFLLEAGADQEHKCDEMHTAL [T17C]	2.5
EMVRFLLEAGADQEHKGDEMHTAL [T17G]	2.94
EMVRFLLEAGNDQEHKTDEMHTAL [A11N]	3.29
EMVRFLLEAGVDQEHKTDEMHTAL [A11V]	2.94
EMVRFLLEAGEDQEHKTDEMHTAL [A11E]	2.68
EMVRFLLEAGKDQEHKTDEMHTAL [A11K]	2.64
EMVRFLLEAGGDQEHKTDEMHTAL [A11G]	3.45
EMVRFLLEAGIDQEHKTDEMHTAL [A11I]	2.29
EMVRFLLEAGMDQEHKTDEMHTAL [A11M]	1.87
EMVRFLLEAGFDQEHKTDEMHTAL [A11F]	1.83

Variant	protein stability index
EMVRFLLEAGTDQEHKTDEMHTAL [A11T]	3.53
EMVRFLLEAGPDQEHKTDEMHTAL [A11P]	3.73
EMVRFLLEAGHDQEHKTDEMHTAL [A11H]	3.22
EMVRFQLEAGADQEHKTDEMHTAL [L6Q]	4.75
EMVRFFLEAGADQEHKTDEMHTAL [L6F]	3.08
EMVRFKLEAGADQEHKTDEMHTAL [L6K]	4.7
EMVRFCLEAGADQEHKTDEMHTAL [L6C]	4.22
EMVRFELEAGADQEHKTDEMHTAL [L6E]	5.28
EMVRFILEAGADQEHKTDEMHTAL [L6I]	2.63
EMVRFNLEAGADQEHKTDEMHTAL [L6N]	4.55
EMVRFRLEAGADQEHKTDEMHTAL [L6R]	4.55
EMVRFYLEAGADQEHKTDEMHTAL [L6Y]	3.81
EMVRFLREAGADQEHKTDEMHTAL [L7R]	4.13
EMVRFLCEAGADQEHKTDEMHTAL [L7C]	3.56
EMVRFLSEAGADQEHKTDEMHTAL [L7S]	3.95
EMVRFLKEAGADQEHKTDEMHTAL [L7K]	3.7
EMVRFLVEAGADQEHKTDEMHTAL [L7V]	3.64
EMVRFLEEAGADQEHKTDEMHTAL [L7E]	4.79
EMVRFLWEAGADQEHKTDEMHTAL [L7W]	3.26
EMVRFLYEAGADQEHKTDEMHTAL [L7Y]	3.17
EMVRFLAEAGADQEHKTDEMHTAL [L7A]	4.08
EMVRFLTEAGADQEHKTDEMHTAL [L7T]	3.99
EMVRFLIEAGADQEHKTDEMHTAL [L7I]	3.31
EMVRFLLEAGALQEHKTDEMHTAL [D12L]	1.09

Variant	protein stability index
EMVRFLLEAGAAQEHKTDEMHTAL [D12A]	2.38
EMVRFLLEAGAHQEHKTDEMHTAL [D12H]	1.94
EMVRFLLEAGAFQEHKTDEMHTAL [D12F]	1.66
EMVRFLLEAGASQEHKTDEMHTAL [D12S]	2.29
EMVRFLLEAGAIQEHKTDEMHTAL [D12I]	1.62
EMVRFLLEAGAVQEHKTDEMHTAL [D12V]	2.05
EMVRFLLEAGATQEHKTDEMHTAL [D12T]	2.21
EMVRFLLEAGADQQHKTDEMHTAL [E14Q]	2.46
EMVRFLLEAGADQWHKTDEMHTAL [E14W]	1.67
EMVRFLLEAGADQSHKTDEMHTAL [E14S]	2.15
EMVRFLLEAGADQIHKTDEMHTAL [E14I]	1.28
EMVRFLLEAGADQPHKTDEMHTAL [E14P]	1.9
EMVRFLLEAGADQKHKTDEMHTAL [E14K]	2.76
EMVRFLLEAGADQCHKTDEMHTAL [E14C]	1.5
EMVRFLLEAGADQVHKTDEMHTAL [E14V]	1.82
EMVRFLLEAGADVEHKTDEMHTAL [Q13V]	2.69
EMVRFLLEAGADYEHKTDEMHTAL [Q13Y]	1.87
EMVRFLLEAGADTEHKTDEMHTAL [Q13T]	3.83
EMVRFLLEAGADPEHKTDEMHTAL [Q13P]	2.67
EMVRFLLEAGADAEHKTDEMHTAL [Q13A]	2.65
EMVRFLLEAGADREHKTDEMHTAL [Q13R]	2.22
EMVRFLLEAGADFEHKTDEMHTAL [Q13F]	2.11
EMVRFLLEAGADHEHKTDEMHTAL [Q13H]	2.46
EMVRFLLEAGADQEHKTDEMHTAG [L24G]	3

Variant	protein stability index
EMVRFLLEAGADQEHKTDEMHTAT [L24T]	3.05
EMVRFLLEAGADQEHKTDEMHTAC [L24C]	2.75
EMVRFLLEAGADQEHKTDEMHTAE [L24E]	3.79
EMVRFLLEAGADQEHKTDEMHTAW [L24W]	2.68
EMVRFLLEAGADQEHKTDEMHTAN [L24N]	3.03
EMVRFLLEAGADQEHKTDEMHTQL [A23Q]	3.69
EMVRFLLEAGADQEHKTDEMHTWL [A23W]	3.12
EMVRFLLEAGADQEHKTDEMHTRL [A23R]	2.96
EMVRFLLEAGADQEHKTDEMHTML [A23M]	2.7
EMVRFLLEAGADQEHKTDEMHTTL [A23T]	2.74
EMVRFLLEAGADQEHKTDEMHTIL [A23I]	2.97
EMVRFLLEAGADQEHKTDEMHTLL [A23L]	2.43
EMVRFLLEAGADQEHKTDEMHTPL [A23P]	3.12
EMVRFLLEAGADQEHKTDEMHNAL [T22N]	2.86
EMVRFLLEAGADQEHKTDEMHAAL [T22A]	2.77
EMVRFLLEAGADQEHKTDEMHYAL [T22Y]	1.93
EMVRFLLEAGADQEHKTDEMHKAL [T22K]	2.51
EMVRFLLEAGADQEHKTDEMHVAL [T22V]	2.46
EMVRFLLEAGADQEHKTDEMHPAL [T22P]	2.86
EMVRFLLEAGADQEHKTDEEHTAL [M20E]	2.94
EMVRFLLEAGADQEHKTDEPHTAL [M20P]	3.21
EMVRFLLEAGADQEHKTDEDHTAL [M20D]	3.56
EMVRFLLEAGADQEHKTDEKHTAL [M20K]	2.94
EMVRFLLEAGADQEHKTDETHTAL [M20T]	3.15

Variant	protein stability index
EMVRFLLEAGADQEHKTDELHTAL [M20L]	3.13
EMVRFLLEAGADQEHKTDEIHTAL [M20I]	2.36
EMVRFLLSAGADQEHKTDEMHTAL [E8S]	2.62
EMVRFLLGAGADQEHKTDEMHTAL [E8G]	2.08
EMVRFLLRAGADQEHKTDEMHTAL [E8R]	2.03
EMVRFLLHAGADQEHKTDEMHTAL [E8H]	2.43
EMVRFLLNAGADQEHKTDEMHTAL [E8N]	2.48
EMVRFLLEKGADQEHKTDEMHTAL [A9K]	3.05
EMVRFLLEFGADQEHKTDEMHTAL [A9F]	2.32
EMVRFLLEEGADQEHKTDEMHTAL [A9E]	3.44
EMVRFLLEPGADQEHKTDEMHTAL [A9P]	3.08
EMVRFLLEVGADQEHKTDEMHTAL [A9V]	2.29
EMVRFLLEYGADQEHKTDEMHTAL [A9Y]	2.54
EMVRFLLEIGADQEHKTDEMHTAL [A9I]	1.98
EMVRFLLELGADQEHKTDEMHTAL [A9L]	2.59
EMVRFLLEGGADQEHKTDEMHTAL [A9G]	2.8
EMVRFLLETGADQEHKTDEMHTAL [A9T]	3.04
EMVRFLLEAGADQESKTDEMHTAL [H15S]	2.79
EMVRFLLEAGADQENKTDEMHTAL [H15N]	3.21
EMVRFLLEAGADQEPKTDEMHTAL [H15P]	2.33
EMVRFLLEAGADQETKTDEMHTAL [H15T]	3.02
EMVRFLLEAGADQECKTDEMHTAL [H15C]	3.16
EMVRFLLEAGADQEWKTDEMHTAL [H15W]	1.72
EMVRFLLEAGADQEKKTDEMHTAL [H15K]	2.92

Variant	protein stability index
EMVRFLLEAGADQEYKTDEMHTAL [H15Y]	1.97
EMVRFLLEAGADQEEKTDEMHTAL [H15E]	3.04
EMVAFLLEAGADQEHKTDEMHTAL [R4A]	2.99
EMVEFLLEAGADQEHKTDEMHTAL [R4E]	3.47
EMVLFLLEAGADQEHKTDEMHTAL [R4L]	2.35
EMVVFLLEAGADQEHKTDEMHTAL [R4V]	2.65
EMVTFLLEAGADQEHKTDEMHTAL [R4T]	3.22
EMVIFLLEAGADQEHKTDEMHTAL [R4I]	2.19
EMVYFLLEAGADQEHKTDEMHTAL [R4Y]	2.35
EMVFFLLEAGADQEHKTDEMHTAL [R4F]	2.77
KMVRFLLEAGADQEHKTDEMHTAL [E1K]	2.48
YMVRFLLEAGADQEHKTDEMHTAL [E1Y]	2.54
IMVRFLLEAGADQEHKTDEMHTAL [E1I]	1.74
VMVRFLLEAGADQEHKTDEMHTAL [E1V]	2.12
MMVRFLLEAGADQEHKTDEMHTAL [E1M]	1.97
RMVRFLLEAGADQEHKTDEMHTAL [E1R]	2.81
EMVRNLLEAGADQEHKTDEMHTAL [F5N]	4.29
EMVRGLLEAGADQEHKTDEMHTAL [F5G]	4.11
EMVRWLLEAGADQEHKTDEMHTAL [F5W]	2.26
EMVRRLLEAGADQEHKTDEMHTAL [F5R]	3.77
EMVRDLLEAGADQEHKTDEMHTAL [F5D]	4.92
EMVRQLLEAGADQEHKTDEMHTAL [F5Q]	4.22
EMVRALLEAGADQEHKTDEMHTAL [F5A]	3.9
EMVRHLLEAGADQEHKTDEMHTAL [F5H]	3.48

Variant	protein stability index
EMVRVLLEAGADQEHKTDEMHTAL [F5V]	3.7
EMVRFLLEAGADQEHKTDEMTTAL [H21T]	2.81
EMVRFLLEAGADQEHKTDEMGTAL [H21G]	3.1
EMVRFLLEAGADQEHKTDEMKTAL [H21K]	3.11
EMVRFLLEAGADQEHKTDEMRTAL [H21R]	3.36
EMVRFLLEAGADQEHKTDEMFTAL [H21F]	2.19
EMVRFLLEAGADQEHKTDEMITAL [H21I]	2.55
EMVRFLLEAGADQEHKTDEMYTAL [H21Y]	2.41
EMVRFLLEAGADQEHKTDYMHTAL [E19Y]	1.6
EMVRFLLEAGADQEHKTDVMHTAL [E19V]	1.79
EMVRFLLEAGADQEHKTDIMHTAL [E19I]	1.63
EMVRFLLEAGADQEHKTDNMHTAL [E19N]	3.27
EMVRFLLEAGADQEHKTDQMHTAL [E19Q]	1.92
EMYRFLLEAGADQEHKTDEMHTAL [V3Y]	3.02
EMWRFLLEAGADQEHKTDEMHTAL [V3W]	2.65
EMMRFLLEAGADQEHKTDEMHTAL [V3M]	2.87
EMARFLLEAGADQEHKTDEMHTAL [V3A]	4.03
EMGRFLLEAGADQEHKTDEMHTAL [V3G]	4.81
EMERFLLEAGADQEHKTDEMHTAL [V3E]	5.24
EMPRFLLEAGADQEHKTDEMHTAL [V3P]	4.83

From the supplement of paper PMC10567573
